Patent publication US20220306707A1 (INDUSTRY UNIVERSITY COOPERATION FOUNDATION HANYANG …, published 2022)
Changes are numbered by the printed parent chain. Names may count otherwise.

B1: recombinant GRA9C (residues 195-288) with N-terminal 6x His tag, purified from E. coli (other)
chain: HHHHHHMSVDPQCIMTREVVAQKLAGWTDNTHTATAGTPKKLLISFPSPDHIKEMVKEGYLPDNALERVLAGDFEGFSRTQMCLVSGRNRTECAFAEGQE
notes: also called rGRA9C; 6xHis-GRA9C
B2: recombinant GRA9C^Q200L (residues 195-288, Q200L) with N-terminal 6x His tag, purified from E. coli (other)
chain: B1 chain with Q12L
notes: also called rGRA9C^Q200L
B3: GST-GRA9 C-terminal domain containing the Q200L mutation (other)
chain: MSVDPLCIMTREVVAQKLAGWTDNTHTATAGTPKKLLISFPSPDHIKEMVKEGYLPDNALERVLAGDFEGFSRTQMCLVSGRNRTECAFAEGQE
notes: also called GST-GRA9 C^Q200L; GST-GRA9 containing the Q200L mutation at the C-terminus

Assays:
[1] = biological target: endogenous mouse NLRP3 (bone marrow-derived macrophages and splenocytes of C57BL/6 mice) (mouse, UniProt Q8R4B8 1-1033); assay: immunoprecipitation from LPS- and ATP-treated BMDMs (FIG. 4D)
[2] = biological target: T1, Flag-NLRP3 wild-type (WT), full-length, transfected into 293T cells (UniProt Q96P20 1-1036); assay: GST pulldown in transfected 293T cells (FIG. 3A)
T1 construct: also called wild-type (WT) NLRP3; not shown: Flag tag
T1 sequence (Q96P20 whole entry): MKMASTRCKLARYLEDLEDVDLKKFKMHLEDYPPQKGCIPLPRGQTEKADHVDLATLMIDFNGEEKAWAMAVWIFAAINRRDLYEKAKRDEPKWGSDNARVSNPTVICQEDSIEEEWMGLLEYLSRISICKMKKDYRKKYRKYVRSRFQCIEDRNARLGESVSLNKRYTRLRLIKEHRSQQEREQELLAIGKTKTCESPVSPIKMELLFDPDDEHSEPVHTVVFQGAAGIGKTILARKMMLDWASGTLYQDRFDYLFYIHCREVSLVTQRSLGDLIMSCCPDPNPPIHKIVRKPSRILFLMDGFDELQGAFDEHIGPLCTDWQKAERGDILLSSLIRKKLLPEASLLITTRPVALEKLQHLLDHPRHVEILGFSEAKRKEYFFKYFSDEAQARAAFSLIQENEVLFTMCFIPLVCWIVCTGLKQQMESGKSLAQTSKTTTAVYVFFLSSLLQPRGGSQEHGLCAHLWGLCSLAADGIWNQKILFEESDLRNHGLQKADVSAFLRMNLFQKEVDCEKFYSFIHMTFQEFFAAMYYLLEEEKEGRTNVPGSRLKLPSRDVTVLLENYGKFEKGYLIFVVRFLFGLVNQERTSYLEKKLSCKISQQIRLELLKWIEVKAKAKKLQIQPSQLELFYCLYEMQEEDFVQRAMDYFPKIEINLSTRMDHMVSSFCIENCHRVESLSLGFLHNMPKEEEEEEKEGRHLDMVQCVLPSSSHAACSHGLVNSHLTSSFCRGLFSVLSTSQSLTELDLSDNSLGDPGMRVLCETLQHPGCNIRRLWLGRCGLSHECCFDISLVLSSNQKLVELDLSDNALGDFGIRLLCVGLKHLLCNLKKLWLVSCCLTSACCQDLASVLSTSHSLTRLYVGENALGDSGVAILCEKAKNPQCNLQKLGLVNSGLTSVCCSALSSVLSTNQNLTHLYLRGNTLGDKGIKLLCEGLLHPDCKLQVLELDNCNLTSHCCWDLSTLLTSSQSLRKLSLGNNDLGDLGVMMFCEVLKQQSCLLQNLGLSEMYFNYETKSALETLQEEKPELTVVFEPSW

Chain of endogenous mouse NLRP3 (bone marrow-derived macrophages and splenocytes of C57BL/6 mice) (Q8R4B8 whole entry): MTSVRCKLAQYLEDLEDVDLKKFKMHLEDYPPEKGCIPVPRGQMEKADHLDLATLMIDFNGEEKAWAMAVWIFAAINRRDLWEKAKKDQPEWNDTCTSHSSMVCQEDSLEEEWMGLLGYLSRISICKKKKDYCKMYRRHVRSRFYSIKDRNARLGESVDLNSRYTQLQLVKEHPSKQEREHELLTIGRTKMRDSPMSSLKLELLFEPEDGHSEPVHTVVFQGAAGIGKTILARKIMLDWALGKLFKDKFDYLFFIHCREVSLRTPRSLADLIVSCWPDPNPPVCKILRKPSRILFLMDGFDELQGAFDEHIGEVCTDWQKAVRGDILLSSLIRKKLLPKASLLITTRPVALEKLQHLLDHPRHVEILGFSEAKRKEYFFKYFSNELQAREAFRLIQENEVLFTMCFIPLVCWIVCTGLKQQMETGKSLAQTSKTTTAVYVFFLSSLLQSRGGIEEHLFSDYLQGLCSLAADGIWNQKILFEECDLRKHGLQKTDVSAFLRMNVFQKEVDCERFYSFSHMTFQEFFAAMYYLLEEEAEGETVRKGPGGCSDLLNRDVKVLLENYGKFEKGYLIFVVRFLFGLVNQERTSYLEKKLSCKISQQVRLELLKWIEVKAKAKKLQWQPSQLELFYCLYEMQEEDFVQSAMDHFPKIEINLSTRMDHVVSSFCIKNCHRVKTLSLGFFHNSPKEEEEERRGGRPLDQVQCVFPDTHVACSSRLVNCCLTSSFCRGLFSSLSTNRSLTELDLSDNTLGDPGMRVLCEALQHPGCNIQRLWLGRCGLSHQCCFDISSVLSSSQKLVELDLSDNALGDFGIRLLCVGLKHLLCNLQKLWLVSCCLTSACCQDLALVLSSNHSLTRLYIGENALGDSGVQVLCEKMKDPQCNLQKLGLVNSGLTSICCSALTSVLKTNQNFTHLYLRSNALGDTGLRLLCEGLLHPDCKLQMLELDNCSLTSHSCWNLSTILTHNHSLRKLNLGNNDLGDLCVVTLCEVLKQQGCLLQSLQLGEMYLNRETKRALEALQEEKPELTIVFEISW

Row | Binder | binding result [1] | binding result [2]
1 | B1 | binds | 
2 | B2 | no binding | 
3 | B3 |  | no binding
